Laboratory results taken from patent US6872703B2, “Insulin receptor-related receptor binding protein” (Ajinomoto Co., Inc., priority 2000, dated 2005).
Each block holds one molecule with its values, some of them ahead of it.

How the values were obtained:
[1] = molecular target: T1, insulin receptor-related receptor (IRR), IRR-Fc fusion protein (extracellular region of mouse IRR) (Mus musculus, UniProt Q9WTL4); test: IRR binding activity by surface plasmon resonance (BIACORE 2000), IRR-Fc binding value minus IR-Fc binding value; conditions: about 1/10 amount of each re-purified specimen (about 10 μg) lyophilized and dissolved in 200 μl of buffer; IR-Fc binding value subtracted from IRR-Fc binding value
T1 construct: with an extracellular region of mouse IRR (1-920th residues); made in house; host or cells: CHO cells
T1 sequence (Q9WTL4 27-920): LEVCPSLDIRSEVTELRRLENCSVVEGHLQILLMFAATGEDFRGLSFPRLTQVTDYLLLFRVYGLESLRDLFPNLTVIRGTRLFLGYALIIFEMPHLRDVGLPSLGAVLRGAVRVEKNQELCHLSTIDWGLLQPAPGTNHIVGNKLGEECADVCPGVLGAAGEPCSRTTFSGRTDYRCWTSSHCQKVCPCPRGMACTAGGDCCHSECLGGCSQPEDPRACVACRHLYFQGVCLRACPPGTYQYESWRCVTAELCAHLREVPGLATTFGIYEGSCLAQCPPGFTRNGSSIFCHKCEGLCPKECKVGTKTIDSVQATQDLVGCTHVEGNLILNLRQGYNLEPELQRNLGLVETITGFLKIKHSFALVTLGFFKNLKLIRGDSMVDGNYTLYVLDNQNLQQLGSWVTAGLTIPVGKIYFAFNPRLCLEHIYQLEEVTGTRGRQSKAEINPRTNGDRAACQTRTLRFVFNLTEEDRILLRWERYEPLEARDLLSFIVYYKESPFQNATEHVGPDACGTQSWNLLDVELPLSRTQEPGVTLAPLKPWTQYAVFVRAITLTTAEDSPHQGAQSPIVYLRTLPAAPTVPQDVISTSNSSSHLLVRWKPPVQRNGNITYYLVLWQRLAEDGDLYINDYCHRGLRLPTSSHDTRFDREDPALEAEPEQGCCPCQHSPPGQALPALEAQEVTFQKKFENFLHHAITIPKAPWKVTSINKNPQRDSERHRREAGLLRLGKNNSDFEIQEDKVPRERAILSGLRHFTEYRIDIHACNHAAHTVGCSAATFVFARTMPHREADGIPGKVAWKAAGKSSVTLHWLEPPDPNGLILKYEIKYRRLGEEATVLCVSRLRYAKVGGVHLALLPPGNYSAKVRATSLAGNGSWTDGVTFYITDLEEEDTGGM
Description: Determination of active fractions in the purification of the IRR ligand from a supernatant of cells expressing the IRR ligand including the rat C6 glioma cells or identification of granulins/epithelins or mutants thereof as IRR ligands can be carried out by measuring activity for binding to IRR in a sample. The binding activity to IRR of a sample specimen can be measured by using a surface plasmon resonance (SPR) measuring apparatus, for example, BIACORE (produced by Biacore). Specifically, for example, the extracellular domain of IRR is prepared as a soluble protein and immobilized on a surface of a BIACORE sensor chip. A sample specimen is sent onto the surface of the sensor chip via a micro flow system at a constant flow rate. If a molecule binding to IRR (IRR ligand) is contained in the sample specimen, the mass of the surface sensor chip is increased due to binding between IRR and IRR ligand molecules, and a shift of the SPR signal in proportion to the binding quantity can be detected as a change in the resonance unit (RU). […] When, for example, an insulin receptor (IR) protein is used as a protein other than IRR, IRR-binding activity can be measured more precisely. […]

[2] = molecular target: IRR (Homo sapiens, UniProt P14616); conditions: literature report; cited from earlier work
IRR, sequence (P14616 27-742 limits assumed, species assumed): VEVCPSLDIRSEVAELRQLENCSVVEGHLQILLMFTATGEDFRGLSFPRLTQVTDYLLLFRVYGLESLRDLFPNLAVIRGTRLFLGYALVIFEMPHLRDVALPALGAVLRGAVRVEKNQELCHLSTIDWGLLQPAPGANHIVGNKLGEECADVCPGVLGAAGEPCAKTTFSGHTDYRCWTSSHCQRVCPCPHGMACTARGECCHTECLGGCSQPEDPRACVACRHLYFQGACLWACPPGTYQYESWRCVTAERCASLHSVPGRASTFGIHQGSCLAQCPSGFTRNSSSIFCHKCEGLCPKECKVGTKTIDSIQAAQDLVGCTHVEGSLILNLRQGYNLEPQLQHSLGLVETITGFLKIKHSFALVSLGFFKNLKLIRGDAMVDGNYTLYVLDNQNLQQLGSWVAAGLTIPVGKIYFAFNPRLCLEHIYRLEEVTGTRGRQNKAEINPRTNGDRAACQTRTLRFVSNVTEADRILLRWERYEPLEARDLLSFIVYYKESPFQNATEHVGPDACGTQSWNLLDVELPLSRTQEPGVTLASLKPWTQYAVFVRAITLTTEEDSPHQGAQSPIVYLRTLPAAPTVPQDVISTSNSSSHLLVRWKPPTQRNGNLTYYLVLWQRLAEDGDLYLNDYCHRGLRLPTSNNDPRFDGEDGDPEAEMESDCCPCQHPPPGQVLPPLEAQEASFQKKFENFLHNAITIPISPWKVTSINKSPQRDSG
IRR, sequence (P14616 747-1297 limits assumed, species assumed): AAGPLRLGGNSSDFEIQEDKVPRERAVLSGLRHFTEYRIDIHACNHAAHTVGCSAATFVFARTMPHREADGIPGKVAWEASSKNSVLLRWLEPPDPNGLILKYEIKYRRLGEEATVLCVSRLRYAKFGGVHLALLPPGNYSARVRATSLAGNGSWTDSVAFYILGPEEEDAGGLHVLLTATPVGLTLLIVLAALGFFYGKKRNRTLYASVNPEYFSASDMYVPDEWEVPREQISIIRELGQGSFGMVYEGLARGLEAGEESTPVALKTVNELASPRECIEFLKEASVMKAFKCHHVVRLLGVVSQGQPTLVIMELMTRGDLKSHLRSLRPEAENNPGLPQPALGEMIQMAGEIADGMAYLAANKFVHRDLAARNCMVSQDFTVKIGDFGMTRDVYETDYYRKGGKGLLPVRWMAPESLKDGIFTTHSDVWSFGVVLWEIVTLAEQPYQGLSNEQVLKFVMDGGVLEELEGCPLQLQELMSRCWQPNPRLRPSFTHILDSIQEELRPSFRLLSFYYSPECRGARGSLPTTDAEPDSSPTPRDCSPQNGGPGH

binding activity (IRR-specific binding value, SPR resonance units) [1]: 21 RU
Molecule: Peak 2: Re-purified IRR ligand fraction from rat C6 cell supernatant; protein of molecular weight 6135, SEQ ID NO: 4 (epithelin/granulin) (IGCDQHTSCPVGQTCCPSLKGSWACCQLPHAVCCEDRQHCCPAGYTCNVKARTCEKQ; listed as Mus musculus)

Molecule: insulin
binding to IRR [2]: cannot bind to IRR

Molecule: insulin-like growth factor (IGF)-1 [IGF-1]
binding to IRR [2]: cannot bind to IRR

binding activity (IRR-specific binding value, SPR resonance units) [1]: 13 RU
B1: Peak 1: Re-purified IRR ligand fraction from rat C6 cell supernatant; proteins of molecular weights 6250 and 6321, SEQ ID NOS: 5 and 6 (epithelin/granulin) (protein, listed as Mus musculus)
chain 1: DIGCDQHTSCPVGQTCCPSLKGSWACCQLPHAVCCEDRQHCCPAGYTCNVKARTCEKN
chain 2: DIGCDQHTSCPVGQTCCPSLKGSWACCQLPHAVCCEDTQHCCPAGYTCNVKARTCEKDA
